Data taken from patent US20140274782A1, “AFFINITY REAGENTS AND METHODS FOR DETECTION, PURIFICATION, AND PROTEOMIC ANALYSIS OF METHYLATED PROTEINS” (The Board of Trustees of the Leland Stanford Junior …, priority 2013, published 2014).

B1: SNRNP40 (protein, UniProt Q96DI7 1-357, looked up)
U5 small nuclear …: MIEQQKRKGPELPLVPVKRQRHELLLGAGSGPGAGQQQATPGALLQAGPPRCSSLQAPIMLLSGHEGEVYCCKFHPNGSTLASAGFDRLILLWNVYGDCDNYATLKGHSGAVMELHYNTDGSMLFSASTDKTVAVWDSETGERVKRLKGHTSFVNSCYPARRGPQLVCTGSDDGTVKLWDIRKKAAIQTFQNTYQVLAVTFNDTSDQIISGGIDNDIKVWDLRQNKLTYTMRGHADSVTGLSLSSEGSYLLSNAMDNTVRVWDVRPFAPKERCVKIFQGNVHNFEKNLLRCSWSPDGSKIAAGSADRFVYVWDTTSRRILYKLPGHAGSINEVAFHPDEPIIISASSDKRLYMGEIQ
B2: UBXN1 (protein, UniProt Q04323 2-297, looked up)
UBX domain-containing protein …: AELTALESLIEMGFPRGRAEKALALTGNQGIEAAMDWLMEHEDDPDVDEPLETPLGHILGREPTSSEQGGLEGSGSAAGEGKPALSEEERQEQTKRMLELVAQKQREREEREEREALERERQRRRQGQELSAARQRLQEDEMRRAAEERRREKAEELAARQRVREKIERDKAERAKKYGGSVGSQPPPVAPEPGPVPSSPSQEPPTKREYDQCRIQVRLPDGTSLTQTFRAREQLAAVRLYVELHRGEELGGGQDPVQLLSGFPRRAFSEADMERPLQELGLVPSAVLIVAKKCPS
B3: STRBP (protein, UniProt Q96SI9 1-672, looked up)
Spermatid perinuclear …: MRSIRSFANDDRHVMVKHSTIYPSPEELEAVQNMVSTVECALKHVSDWLDETNKGTKTEGETEVKKDEAGENYSKDQGGRTLCGVMRIGLVAKGLLIKDDMDLELVLMCKDKPTETLLNTVKDNLPIQIQKLTEEKYQVEQCVNEASIIIRNTKEPTLTLKVILTSPLIRDELEKKDGENVSMKDPPDLLDRQKCLNALASLRHAKWFQARANGLKSCVIVLRILRDLCNRVPTWAPLKGWPLELICEKSIGTCNRPLGAGEALRRVMECLASGILLPGGPGLHDPCERDPTDALSYMTIQQKEDITHSAQHALRLSAFGQIYKVLEMDPLPSSKPFQKYSWSVTDKEGAGSSALKRPFEDGLGDDKDPNKKMKRNLRKILDSKAIDLMNALMRLNQIRPGLQYKLLSQSGPVHAPVFTMSVDVDGTTYEASGPSKKTAKLHVAVKVLQAMGYPTGFDADIECMSSDEKSDNESKNETVSSNSSNNTGNSTTETSSTLEVRTQGPILTASGKNPVMELNEKRRGLKYELISETGGSHDKRFVMEVEVDGQKFRGAGPNKKVAKASAALAALEKLFSGPNAANNKKKKIIPQAKGVVNTAVSAAVQAVRGRGRGTLTRGAFVGATAAPGYIAPGYGTPYGYSTAAPAYGLPKRMVLLPVMKFPTYPVPHYSFF
B4: PPIL4 (protein, UniProt Q8WUA2 1-492, looked up)
Peptidyl-prolyl cis-trans …: MAVLLETTLGDVVIDLYTEERPRACLNFLKLCKIKYYNYCLIHNVQRDFIIQTGDPTGTGRGGESIFGQLYGDQASFFEAEKVPRIKHKKKGTVSMVNNGSDQHGSQFLITTGENLDYLDGVHTVFGEVTEGMDIIKKINETFVDKDFVPYQDIRINHTVILDDPFDDPPDLLIPDRSPEPTREQLDSGRIGADEEIDDFKGRSAEEVEEIKAEKEAKTQAILLEMVGDLPDADIKPPENVLFVCKLNPVTTDEDLEIIFSRFGPIRSCEVIRDWKTGESLCYAFIEFEKEEDCEKAFFKMDNVLIDDRRIHVDFSQSVAKVKWKGKGGKYTKSDFKEYEKEQDKPPNLVLKDKVKPKQDTKYDLILDEQAEDSKSSHSHTSKKHKKKTHHCSEEKEDEDYMPIKNTNQDIYREMGFGHYEEEESCWEKQKSEKRDRTQNRSRSRSRERDGHYSNSHKSKYQTDLYERERSKKRDRSRSPKKSKDKEKSKYR

Columns and labels:
[1] = tested on: 3×MBT domain of L3MBTL1; test: Triple SILAC pull-down, 3xMBT/3xMBTD355N ratio (cytoplasmic, nuclear and chromatin fractions of 293T cells); type: binding, human; conditions: for 3xMBT/D355N UNC Heavy: experiment with UNC0638 in heavy SILAC media; for 3xMBT/D355N UNC Light: experiment with UNC0638 in light SILAC media;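 on all read-outs here: proteins quantified with MaxQuant, requiring at least two unique peptides and quantification in both label directions, normalized to the mean of proteins from a digested loading control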
[2] = molecular target: T1, G9a and GLP (Homo sapiens, UniProt Q96KQ7+Q9H9B1); test: Triple SILAC pull-down after UNC0638 treatment of 293T cells, DMSO/UNC0638 ratio of protein captured by 3×MBT; type: cell-based; set-up: endogenous in cells; host or cells: HEK 293T; conditions: for Relative to UNC0638 UNC Heavy: UNC0638 in heavy SILAC media; for Relative to UNC0638 UNC Light: UNC0638 in light SILAC media; for Relative to UNC0638 Average: average of UNC Light and UNC Heavy experiments;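 on all read-outs here: mass spectrometry (Q-Exactive) SILAC quantitation, DMSO/UNC0638 ratio computed after subtracting 3×MBTD355N mutant pull-down background, only proteins with at least twofold 3×MBT over mutant signal considered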
T1 sequence (Q96KQ7 2-1210 limits assumed): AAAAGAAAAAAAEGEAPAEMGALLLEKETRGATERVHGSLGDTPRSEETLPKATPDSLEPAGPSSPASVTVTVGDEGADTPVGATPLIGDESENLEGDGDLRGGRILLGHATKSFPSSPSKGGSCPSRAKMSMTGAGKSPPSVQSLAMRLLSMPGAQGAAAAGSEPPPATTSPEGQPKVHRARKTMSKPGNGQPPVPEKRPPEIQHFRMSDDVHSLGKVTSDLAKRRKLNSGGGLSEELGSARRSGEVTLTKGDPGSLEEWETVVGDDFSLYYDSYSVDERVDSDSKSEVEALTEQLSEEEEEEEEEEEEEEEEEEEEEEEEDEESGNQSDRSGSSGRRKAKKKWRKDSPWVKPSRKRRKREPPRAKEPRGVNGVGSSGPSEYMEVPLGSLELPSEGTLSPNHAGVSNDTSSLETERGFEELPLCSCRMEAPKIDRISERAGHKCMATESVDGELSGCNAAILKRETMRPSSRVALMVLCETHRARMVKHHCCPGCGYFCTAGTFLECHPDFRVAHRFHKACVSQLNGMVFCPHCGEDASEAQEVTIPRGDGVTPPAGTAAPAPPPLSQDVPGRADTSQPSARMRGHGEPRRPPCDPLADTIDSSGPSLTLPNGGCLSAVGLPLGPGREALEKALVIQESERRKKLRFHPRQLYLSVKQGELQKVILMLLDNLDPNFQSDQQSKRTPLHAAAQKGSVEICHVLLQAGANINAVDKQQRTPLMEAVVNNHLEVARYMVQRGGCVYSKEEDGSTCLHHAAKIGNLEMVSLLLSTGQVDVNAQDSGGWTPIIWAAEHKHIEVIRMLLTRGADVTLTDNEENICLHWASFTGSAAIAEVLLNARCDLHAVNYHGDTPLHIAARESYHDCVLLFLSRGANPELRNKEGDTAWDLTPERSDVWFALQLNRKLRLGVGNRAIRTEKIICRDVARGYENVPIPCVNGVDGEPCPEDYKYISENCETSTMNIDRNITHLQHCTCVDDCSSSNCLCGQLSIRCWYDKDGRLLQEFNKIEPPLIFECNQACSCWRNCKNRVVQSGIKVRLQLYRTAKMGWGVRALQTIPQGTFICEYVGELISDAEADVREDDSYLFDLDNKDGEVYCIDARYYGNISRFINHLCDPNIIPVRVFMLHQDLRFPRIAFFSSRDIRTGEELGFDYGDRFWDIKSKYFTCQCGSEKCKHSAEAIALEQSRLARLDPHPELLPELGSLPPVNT
T1 sequence (Q9H9B1 2-1298 limits assumed): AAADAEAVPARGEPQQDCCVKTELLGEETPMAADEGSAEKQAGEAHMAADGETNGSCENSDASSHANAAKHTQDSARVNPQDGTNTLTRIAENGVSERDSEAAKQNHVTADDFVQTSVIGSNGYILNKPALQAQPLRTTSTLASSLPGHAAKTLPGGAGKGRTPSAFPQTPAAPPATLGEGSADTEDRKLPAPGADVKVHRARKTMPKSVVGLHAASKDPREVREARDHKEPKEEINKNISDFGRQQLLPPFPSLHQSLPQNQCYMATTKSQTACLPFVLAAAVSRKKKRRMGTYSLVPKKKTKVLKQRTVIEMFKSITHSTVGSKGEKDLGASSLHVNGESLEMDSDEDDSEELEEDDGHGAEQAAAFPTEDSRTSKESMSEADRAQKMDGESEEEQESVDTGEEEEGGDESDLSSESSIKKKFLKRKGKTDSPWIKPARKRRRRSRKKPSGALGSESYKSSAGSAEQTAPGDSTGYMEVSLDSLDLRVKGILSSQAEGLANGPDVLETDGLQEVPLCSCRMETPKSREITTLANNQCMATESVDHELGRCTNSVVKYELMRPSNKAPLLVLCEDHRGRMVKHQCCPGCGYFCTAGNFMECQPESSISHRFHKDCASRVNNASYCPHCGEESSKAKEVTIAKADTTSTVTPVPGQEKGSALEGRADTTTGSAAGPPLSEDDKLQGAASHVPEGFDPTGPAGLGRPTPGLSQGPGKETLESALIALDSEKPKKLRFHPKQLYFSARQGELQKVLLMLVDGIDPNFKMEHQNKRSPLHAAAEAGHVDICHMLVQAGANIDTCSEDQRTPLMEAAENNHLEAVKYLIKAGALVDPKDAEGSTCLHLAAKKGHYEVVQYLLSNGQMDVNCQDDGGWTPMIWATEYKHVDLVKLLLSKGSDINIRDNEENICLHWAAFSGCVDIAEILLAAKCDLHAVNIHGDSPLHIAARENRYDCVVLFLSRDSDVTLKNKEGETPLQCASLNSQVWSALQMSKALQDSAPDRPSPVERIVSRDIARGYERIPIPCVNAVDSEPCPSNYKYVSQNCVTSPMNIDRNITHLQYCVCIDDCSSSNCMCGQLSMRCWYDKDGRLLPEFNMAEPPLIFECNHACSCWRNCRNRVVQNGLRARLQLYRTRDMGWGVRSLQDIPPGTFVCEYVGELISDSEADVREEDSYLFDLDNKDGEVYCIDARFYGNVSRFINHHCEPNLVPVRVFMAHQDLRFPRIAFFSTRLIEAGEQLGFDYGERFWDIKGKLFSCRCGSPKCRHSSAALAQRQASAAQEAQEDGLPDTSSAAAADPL

[3] = SILAC ratio 3xMBT vs 3xMBTD355N pull-down, 293T cells, all values in log base 2
[4] = SILAC ratio DMSO relative to UNC0638, pull-down with 3xMBT, all values in log base 2
[5] = SILAC ratio, pull-down 3xMBT vs 3xMBTD355N
[6] = SILAC ratio DMSO/UNC0638 of protein pulled down with 3xMBT

Molecule	3xMBT/D355N UNC Heavy [1, 3] [log base 2]	3xMBT/D355N UNC Light [1, 3] [log base 2]	Relative to UNC0638 UNC Heavy [2, 4] [log base 2]	Relative to UNC0638 UNC Light [2, 4] [log base 2]	Relative to UNC0638 Average ([2]; all values in log base 2) [log base 2]	3xMBT/D355N UNC Heavy [1, 5] [log base 2]	3xMBT/D355N UNC Light [1, 5] [log base 2]	Relative to UNC0638 UNC Heavy [2, 6] [log base 2]	Relative to UNC0638 UNC Light [2, 6] [log base 2]	Relative to UNC0638 Average [2] [log base 2]	Candidate G9a/GLP target ([2]; reduced association with 3xMBT after UNC0638 treatment)
B1	2.39	2.64	0.27	−0.12	0.07						
B2	0.62	1.91	0.12	0.04	0.08						
B3	2.70	3.07	0.21	−0.06	0.07						
B4						1.63	2.38	0.46	0.50	0.48	✓
